Source: patent publication US20220380463A1 (Adimab, published 2022)

T1: Cynomolgus CD3εδ Fc heterodimer (Cy CD3ε Fc / CD3δ Fc-HIS) (cynomolgus, UniProt Q95LI8 22-100)
T1 chain 1: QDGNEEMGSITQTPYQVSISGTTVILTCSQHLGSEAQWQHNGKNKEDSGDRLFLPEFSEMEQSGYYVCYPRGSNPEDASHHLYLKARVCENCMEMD
T1 chain 2: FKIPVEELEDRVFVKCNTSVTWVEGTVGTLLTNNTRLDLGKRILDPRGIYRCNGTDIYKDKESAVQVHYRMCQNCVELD


Biological target: T1, Cynomolgus CD3εδ Fc heterodimer (Cy …)
Test: BLI (Octet), IgG on AHC sensor, pH 6.0

Binder | koff [s⁻¹]
SAD10319_P05_G04 (ADI-57416) (antibody, V domains shown, IgG; also called Ab144) VH: QVQLVQSGAEVKKPGASVKVSCKASGYTFTSYGMHWVRQAPGQRLEWMGWIDPVTGATDYSQKFQGRVTITRDTSASTAYMELSSLRSEDTAVYYCARDAHGRYFYDHWGQGTLVTVSS VL: DIVMTQSPDSLAVSLGERATINCKSSQSLLNARTGKNYLAWYQQKPGQPPKLLIYWASTRESGVPDRFSGSGSGTDFTLTISSLQAEDVAVYYCKQSYSRRTFGGGTKVEIK | 0.00389
SAD10319_P05_H06 (ADI-57417) (antibody, V domains shown, IgG; also called Ab145) VH: QVQLVQSGAEVKKPGASVKVSCKASGYTFTEYDMHWVRQAPGPTLEWMGWIDAGTGATVYSQKFQGRVTITRDTSASTAYMELSSLRSEDTAVYYCARDAYGRYFYDHWGQGTLVTVSS VL: DIVMTQSPDSLAVSLGERATINCKSSQSLLNARTGKNYLAWYQQKPGQPPKLLIYWASTRESGVPDRFSGSGSGTDFTLTISSLQAEDVAVYYCKQSYSRRTFGGGTKVEIK | 0.0104
SAD10319_P06_A10 (ADI-57419) (antibody, V domains shown, IgG; also called Ab148) VH: QVQLVQSGAEVKKPGASVKVSCKASGYTFTGYEMHWVRQAPGQRLEWMGWINPVTGATAYSQKFQGRVTITRDTSASTAYMELSSLRSEDTAVYYCARDAYGHYFYDHWGQGTLVTVSS VL: DIVMTQSPDSLAVSLGERATINCKSSQSLLNARTGKNYLAWYQQKPGQPPKLLIYWASTRESGVPDRFSGSGSGTDFTLTISSLQAEDVAVYYCKQSYSRRTFGGGTKVEIK | 0.0246
SAD10319_P06_A11 (ADI-57420) (antibody, V domains shown, IgG; also called Ab149) VH: QVQLVQSGAEVKKPGASVKVSCKASGYTFDSIAMHWVRQAPGQRLEWMGWINPATGNTDYSQKFQGRVTITRDTSASTAYMELSSLRSEDTAVYYCARDAYGHYFYDHWGQGTLVTVSS VL: DIVMTQSPDSLAVSLGERATINCKSSQSLLNARTGKNYLAWYQQKPGQPPKLLIYWASTRESGVPDRFSGSGSGTDFTLTISSLQAEDVAVYYCKQSYSRRTFGGGTKVEIK | 0.00279
SAD10319_P06_B10 (ADI-57421) (antibody, V domains shown, IgG; also called Ab150) VH: QVQLVQSGAEVKKPGASVKVSCKASGYTFTEYVMHWVRQAPGQRLEWMGDIDAGTGATKYSQKFQGRVTITRDTSASTAYMELSSLRSEDTAVYYCARDAYHHYFYDVWGQGTLVTVSS VL: DIVMTQSPDSLAVSLGERATINCKSSQSLLNARTGKNYLAWYQQKPGQPPKLLIYWASTRESGVPDRFSGSGSGTDFTLTISSLQAEDVAVYYCKQSYSRRTFGGGTKVEIK | 0.002
SAD10319_P06_B11 (ADI-57422) (antibody, V domains shown, IgG; also called Ab151) VH: QVQLVQSGAEVKKPGASVKVSCKASGYTFHSYDMHWVRQAPGQRLEWMGWIDAGTGATTYSQKFQGRVTITRDTSASTAYMELSSLRSEDTAVYYCARDAYGHYFYDVWGQGTLVTVSS VL: DIVMTQSPDSLAVSLGERATINCKSSQSLLNARTGKNYLAWYQQKPGQPPKLLIYWASTRESGVPDRFSGSGSGTDFTLTISSLQAEDVAVYYCKQSYSRRTFGGGTKVEIK | 0.0101
SAD10319_P06_C10 (ADI-57423) (antibody, V domains shown, IgG; also called Ab152) VH: QVQLVQSGAEVKKPGASVKVSCKASGYTFTEYVMHWVRQAPGPRLEWMGDIDAGTGATKYSQKFQGRVTITRDTSASTAYMELSSLRSEDTAVYYCARDAYHHYFYDVWGQGTLVTVSS VL: DIVMTQSPDSLAVSLGERATINCKSSQSLLNARTGKNYLAWYQQKPGQPPKLLIYWASTRESGVPDRFSGSGSGTDFTLTISSLQAEDVAVYYCKQSYSRRTFGGGTKVEIK | 0.00318
SAD10319_P06_C12 (ADI-57424) (antibody, V domains shown, IgG; also called Ab153) VH: QVQLVQSGAEVKKPGASVKVSCKASGYTFDSYEMHWVRQAPGHRLEWMGWINPLTGATKYSQKFQGRVTITRDTSASTAYMELSSLRSEDTAVYYCARDHYGHYFYDVWGQGTLVTVSS VL: DIVMTQSPDSLAVSLGERATINCKSSQSLLNARTGKNYLAWYQQKPGQPPKLLIYWASTRESGVPDRFSGSGSGTDFTLTISSLQAEDVAVYYCKQSYSRRTFGGGTKVEIK | 0.00756
SAD10319_P06_D12 (ADI-57425) (antibody, V domains shown) VH: QVQLVQSGAEVKKPGASVKVSCKASGYTFNRYVMHWVRQAPGQRLEWMGGIDAGTGATKYSQKFQGRVTITRDTSASTAYMELSSLRSEDTAVYYCARDAHRHYFYDVWGQGTLVTVSS VL: DIVMTQSPDSLAVSLGERATINCKSSQSLLNARTGKNYLAWYQQKPGQPPKLLIYWASTRESGVPDRFSGSGSGTDFTLTISSLQAEDVAVYYCKQSYSRRTFGGGTKVEIK | 0.0192
SAD10319_P06_E08 (ADI-57426) (antibody, V domains shown, IgG; also called Ab155) VH: QVQLVQSGAEVKKPGASVKVSCKASGYTFIKYVMHWVRQAPGQRLEWMGDIDPDTGATEYSQKFQGRVTITRDTSASTAYMELSSLRSEDTAVYYCARDDYHHYFYDVWGQGTLVTVSS VL: DIVMTQSPDSLAVSLGERATINCKSSQSLLNARTGKNYLAWYQQKPGQPPKLLIYWASTRESGVPDRFSGSGSGTDFTLTISSLQAEDVAVYYCKQSYSRRTFGGGTKVEIK | 0.0105
SAD10319_P06_E09 (ADI-57427) (antibody, V domains shown, IgG; also called Ab156) VH: QVQLVQSGAEVKKPGASVKVSCKASGYTFTAYDMHWVRQAPGQRLEWMGWINPDTGATVYSQKFQGRVTITRDTSASTAYMELSSLRSEDTAVYYCARDAYGRYFYDVWGQGTLVTVSS VL: DIVMTQSPDSLAVSLGERATINCKSSQSLLNARTGKNYLAWYQQKPGQPPKLLIYWASTRESGVPDRFSGSGSGTDFTLTISSLQAEDVAVYYCKQSYSRRTFGGGTKVEIK | 0.0122
SAD10319_P06_E10 (ADI-57428) (antibody, V domains shown, IgG; also called Ab157) VH: QVQLVQSGAEVKKPGASVKVSCKASGYTFTQYDMHWVRQAPGQTLEWMGDINAGTGVTVYSQKFQGRVTITRDTSASTAYMELSSLRSEDTAVYYCARDAYGRYFYDVWGQGTLVTVSS VL: DIVMTQSPDSLAVSLGERATINCKSSQSLLNARTGKNYLAWYQQKPGQPPKLLIYWASTRESGVPDRFSGSGSGTDFTLTISSLQAEDVAVYYCKQSYSRRTFGGGTKVEIK | 0.00575
SAD10319_P06_F07 (ADI-57429) (antibody, V domains shown, IgG; also called Ab159) VH: QVQLVQSGAEVKKPGASVKVSCKASGYTFESYDMHWVRQAPGQPLEWMGWIDAGTGATTYSQKFQGRVTITRDTSASTAYMELSSLRSEDTAVYYCARDAYHHYFYDVWGQGTLVTVSS VL: DIVMTQSPDSLAVSLGERATINCKSSQSLLNARTGKNYLAWYQQKPGQPPKLLIYWASTRESGVPDRFSGSGSGTDFTLTISSLQAEDVAVYYCKQSYSRRTFGGGTKVEIK | 0.0251
SAD10319_P06_F10 (ADI-57430) (antibody, V domains shown, IgG; also called Ab160) VH: QVQLVQSGAEVKKPGASVKVSCKASGYTFVSYDMHWVRQAPGPSLEWMGWIDPNTGATVYSQKFQGRVTITRDTSASTAYMELSSLRSEDTAVYYCARDHYGHYFYDVWGQGTLVTVSS VL: DIVMTQSPDSLAVSLGERATINCKSSQSLLNARTGKNYLAWYQQKPGQPPKLLIYWASTRESGVPDRFSGSGSGTDFTLTISSLQAEDVAVYYCKQSYSRRTFGGGTKVEIK | 0.00663
SAD10319_P06_G09 (ADI-57431) (antibody, V domains shown, IgG; also called Ab161) VH: QVQLVQSGAEVKKPGASVKVSCKASGYTFESYDMHWVRQAPGPRLEWMGWIDAGTGATTYSQKFQGRVTITRDTSASTAYMELSSLRSEDTAVYYCARDAYHHYFYDVWGQGTLVTVSS VL: DIVMTQSPDSLAVSLGERATINCKSSQSLLNARTGKNYLAWYQQKPGQPPKLLIYWASTRESGVPDRFSGSGSGTDFTLTISSLQAEDVAVYYCKQSYSRRTFGGGTKVEIK | 0.00258
SAD10319_P06_G11 (ADI-57432) (antibody, V domains shown, IgG; also called Ab162) VH: QVQLVQSGAEVKKPGASVKVSCKASGYTFTDYDMHWVRQAPGQRLEWMGWINAGDAATVYSQKFQGRVTITRDTSASTAYMELSSLRSEDTAVYYCARDAYGHYFYDHWGQGTLVTVSS VL: DIVMTQSPDSLAVSLGERATINCKSSQSLLNARTGKNYLAWYQQKPGQPPKLLIYWASTRESGVPDRFSGSGSGTDFTLTISSLQAEDVAVYYCKQSYSRRTFGGGTKVEIK | 0.00924
